Results reported in publication PMC12416549 (2024).
Positions count from the first letter of the chain named. Names may count otherwise.

T1: TNFR1 (Homo sapiens, UniProt P19438)
T1 chain: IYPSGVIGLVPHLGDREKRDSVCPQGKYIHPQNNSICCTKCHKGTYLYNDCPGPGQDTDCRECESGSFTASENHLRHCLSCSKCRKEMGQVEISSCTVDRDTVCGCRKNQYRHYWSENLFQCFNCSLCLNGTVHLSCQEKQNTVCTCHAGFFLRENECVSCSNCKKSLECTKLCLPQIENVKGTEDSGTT

B1: A35D (designed binder)
chain: SMEEEVEKAAKEYEKKKKEAIEKHLEKLKAKDKEDAERFLKELEEAAKEYAKDEAKTMSEEEAKRRAKKYKEKVLLSELSEEEQKEIKEAEEKLVRTILKYVEEAAK
B2: K93L (designed binder)
chain: B1 chain with D35A, K93L
B3: H24K (designed binder)
chain: B1 chain with H24K, D35A
B4: V6C (designed binder)
chain: B1 chain with V6C, D35A
B5: L79W (designed binder)
chain: B1 chain with D35A, L79W
B6: K41N (designed binder)
chain: B1 chain with D35A, K41N
B7: E103D (designed binder)
chain: B1 chain with D35A, E103D
B8: E34R (designed binder)
chain: B1 chain with E34R, D35A
B9: Q84V (designed binder)
chain: B1 chain with D35A, Q84V
B10: L76E (designed binder)
chain: B1 chain with D35A, L76E
B11: A30S (designed binder)
chain: B1 chain with A30S, D35A
B12: E92W (designed binder)
chain: B1 chain with D35A, E92W
B13: Q84T (designed binder)
chain: B1 chain with D35A, Q84T
B14: E34P (designed binder)
chain: B1 chain with E34P, D35A
B15: E83F (designed binder)
chain: B1 chain with D35A, E83F
B16: E7P (designed binder)
chain: B1 chain with E7P, D35A
B17: I21N (designed binder)
chain: B1 chain with I21N, D35A
B18: M58E (designed binder)
chain: B1 chain with D35A, M58E
B19: S80E (designed binder)
chain: B1 chain with D35A, S80E
B20: L28W (designed binder)
chain: B1 chain with L28W, D35A
B21: L25I (designed binder)
chain: B1 chain with L25I, D35A
B22: K11W (designed binder)
chain: B1 chain with K11W, D35A
B23: K31Y (designed binder)
chain: B1 chain with K31Y, D35A
B24: M2I (designed binder)
chain: B1 chain with M2I, D35A
B25: L76F (designed binder)
chain: B1 chain with D35A, L76F
B26: L28Y (designed binder)
chain: B1 chain with L28Y, D35A
B27: K16W (designed binder)
chain: B1 chain with K16W, D35A
B28: K100H (designed binder)
chain: B1 chain with D35A, K100H
B29: D32Q (designed binder)
chain: B1 chain with D32Q, D35A
B30: E5D (designed binder)
chain: B1 chain with E5D, D35A
B31: K68W (designed binder)
chain: B1 chain with D35A, K68W
B32: E83I (designed binder)
chain: B1 chain with D35A, E83I
B33: K107C (designed binder)
chain: B1 chain with D35A, K107C
B34: E92G (designed binder)
chain: B1 chain with D35A, E92G
B35: A30N (designed binder)
chain: B1 chain with A30N, D35A
B36: E34I (designed binder)
chain: B1 chain with E34I, D35A
B37: E45V (designed binder)
chain: B1 chain with D35A, E45V
B38: E22W (designed binder)
chain: B1 chain with E22W, D35A
B39: K52L (designed binder)
chain: B1 chain with D35A, K52L
B40: K48M (designed binder)
chain: B1 chain with D35A, K48M
B41: K88D (designed binder)
chain: B1 chain with D35A, K88D
B42: I87C (designed binder)
chain: B1 chain with D35A, I87C
B43: Y101S (designed binder)
chain: B1 chain with D35A, Y101S
B44: E49V (designed binder)
chain: B1 chain with D35A, E49V
B45: R65E (designed binder)
chain: B1 chain with D35A, R65E
B46: A55W (designed binder)
chain: B1 chain with D35A, A55W
B47: L40F (designed binder)
chain: B1 chain with D35A, L40F
B48: S1L (designed binder)
chain: B1 chain with S1L, D35A
B49: A63C (designed binder)
chain: B1 chain with D35A, A63C
B50: D32H (designed binder)
chain: B1 chain with D32H, D35A
B51: E61K (designed binder)
chain: B1 chain with D35A, E61K
B52: K64I (designed binder)
chain: B1 chain with D35A, K64I
B53: S77H (designed binder)
chain: B1 chain with D35A, S77H
B54: A105Q (designed binder)
chain: B1 chain with D35A, A105Q
B55: E62H (designed binder)
chain: B1 chain with D35A, E62H

Molecular target: T1, TNFR1
Test: yeast display SC50

| Binder | apparent Kd (screen) |
| --- | --- |
| B1 | 2.25 nM |
| B2 | 1.05 nM |
| B3 | 2.73 nM |
| B4 | 1.27 nM |
| B5 | 6.43 nM |
| B6 | 0.49 nM |
| B7 | 0.79 nM |
| B8 | 0.446 nM |
| B9 | 3 nM |
| B10 | 2.48 nM |
| B11 | 0.718 nM |
| B12 | 10.4 nM |
| B13 | 11.4 nM |
| B14 | 0.653 nM |
| B15 | 2.05 nM |
| B16 | 1.4 nM |
| B17 | 1.69 nM |
| B18 | 8.56 nM |
| B19 | 5.84 nM |
| B20 | 0.49 nM |
| B21 | 0.956 nM |
| B22 | 0.79 nM |
| B23 | 0.49 nM |
| B24 | 1.27 nM |
| B25 | 0.539 nM |
| B26 | 0.446 nM |
| B27 | 0.49 nM |
| B28 | 1.16 nM |

| Binder | apparent Kd (screen) |
| --- | --- |
| B29 | 1.16 nM |
| B30 | 0.653 nM |
| B31 | 2.73 nM |
| B32 | 0.446 nM |
| B33 | 2.73 nM |
| B34 | 1.54 nM |
| B35 | 0.79 nM |
| B36 | 0.446 nM |
| B37 | 1.86 nM |
| B38 | 0.593 nM |
| B39 | 0.869 nM |
| B40 | 0.653 nM |
| B41 | 0.446 nM |
| B42 | 3.3 nM |
| B43 | 0.956 nM |
| B44 | 10.4 nM |
| B45 | 1.54 nM |
| B46 | 20.2 nM |
| B47 | 0.869 nM |
| B48 | 1.4 nM |
| B49 | 26.9 nM |
| B50 | 0.718 nM |
| B51 | 1.69 nM |
| B52 | 1.05 nM |
| B53 | 0.49 nM |
| B54 | 0.593 nM |
| B55 | 0.79 nM |
